Assay results reported in article PMC8113551 (2021).

Target: GP[change] (Zaire ebolavirus | , UniProt Q05320)
Test: BLI

| Binder | Kd [pM] |
| --- | --- |
| ADI-15946 (antibody, V domains shown) VH: EVQLVESGGGLVKPGGSLRLSCAASGFTFSNAWMSWVRQAPGKGLEWVGRIKSKTDGGTIDYAAPVKGRFTISRDDSKNTVYLQMTSLKTEDTAVYYCTTYTEDMRYFDWLLRGGETFDYWGQGTLVTVSS VL: DIRLTQSPSSLSASVGDRVTITCRASHYISTYLNWYQQKPGKAPKLLIYAASNLQSGVPSRFSGSGFGTDFSLTISSLQPEDFATYHCQQSYSTPGRYTFGQGTKVEIK | < 1 |
| mAb114 (antibody, V domains shown) VH: EVQLVESGGGLIQPGGSLRLSCAASGFALRMYDMHWVRQTIDKRLEWVSAVGPSGDTYYADSVKGRFAVSRENAKNSLSLQMNSLTAGDTAIYYCVRSDRGVAGLFDSWGQGILVTVSS VL: DIQMTQSPSSLSASVGDRITITCRASQAFDNYVAWYQQRPGKVPKLLISAASALHAGVPSRFSGSGSGTHFTLTISSLQPEDVATYYCQNYNSAPLTFGGGTKVEIK | < 1 |
| c13C6 (antibody, V domains shown) VH: DVKLLESGGGLVQPGGSLKLSCAASGFSLSTSGVGVGWFRQPSGKGLEWLALIWWDDDKYYNPSLKSQLSISKDFSRNQVFLKISNVDIADTATYYCARRDPFGYDNAMGYWGQGTSVTVS VL: DIVMTQSPLSLSTSVGDRVSLTCKASQNVGTAVAWYQQKPGQSPKLLIYSASNRYTGVPDRFTGSGSGTDFTLTISNMQSEDLADYFCQQYSSYPLTFGAGTKLELR | < 1 |
| mAb100 (antibody, V domains shown) VH: QVQLQESGPGLVKPSDTLSLTCTVSGGSLSSFYWSWIRQPPGKGLEWIGYIYYSGSPNYSPSLESRVTMSVDTTRNQISLKLDSVTAADTAVYYCVRASRSYYWGSYRPTAFDSWGQGTLVTVSS VL: SYELTQPLSVSVSPGQTAIFTCSGDNLGDKYVCWFQQRPGQSPMLLIYQDNKRPSGIPERFSGSNSGNTATLTISGTQSTDEADYYCQTWDSTVVFGGGTKLTVL | < 1 |
| CA45 (antibody, V domains shown) VH: QVQLQEWGEGLVKPSETLSLTCAVYGGSISGYYHWNWIRLPPGKGLEWIGNIDGNSASTNYNPSLKTRVTISKDTSKNQISLKVRSLTAADTAVYYCARDPGFTIFGVVITSWSGLDSWGQGAVVTVSS VL: DIQMTQSPSSLSASVGDTVTITCRASQSISNNLAWYQQRPRRAPQLLIYAASNLASGVPSRFSGSGSGTDFTLTISSLQAEDFAAYYCQQHNTLPLTFGGGTKVEIK | < 1 |
| KZ52 (antibody, V domains shown) VH: EVQLLESGGGLVKPGGSLRLSCAASGFTLINYRMNWVRQAPGKGLEWVSSISSSSSYIHYADSVKGRFTISRDNAENSLYLQMNSLRAEDTAVYYCVREGPRATGYSMADVFDIWGQGTMVTVSS VL: not shown | < 1 |
| c4G7 (antibody, V domains shown) VH: EVQLQESGPELEMPGASVKISCKASGSSFTGFSMNWVKQSNGKSLEWIGNIDTYYGGTTYNQKFKGKATLTVDKSSSTAYMQLKSLTSEDSAVYYCARSAYYGSTFAYWGQGTLVTVS VL: DIQMTQSPASLSASVGETVTITCRASENIYSYLAWYQQKQGKSPQLLVYNAKTLIEGVPSRFSGSGSGTQFSLKINSLQPEDFGSYFCQHHFGTPFTFGSGTELEIK | < 1 |
| ADI-15878 (antibody, V domains shown) VH: QVQLVQSGVTLVQPGGSLRVSCAASGFTFSSYAMSWVRQAPGKGLEWVSAISGLGGSTYYADSVKGRFTISRDNSKNTLYLQMNSLRAEDTAVYYCAKDHRVWAAGYHFDYWGQGALVTVSS VL: DIVLTQSPSTLSASVGDRVTITCRASQSISSWLAWYQQKPGEAPKLLISDASSLESGVPSRFSGSGSGTEFTLTISSLQPDDFATYYCQQYYSSPTFGGGTKVEIK | < 1 |
| c2G4 (antibody, V domains shown) VH: EVQLQESGGGLMQPGGSMKLSCVASGFTFSNYWMNWVRQSPEKGLEWVAEIRLKSNNYATHYAESVKGRFTISRDDSKRSVYLQMNTLRAEDTGIYYCTRGNGNYRAMDYWGQGTSVTVS VL: DIQMTQSPASLSVSVGETVSITCRASENIYSSLAWYQQKQGKSPQLLVYSATILADGVPSRFSGSGSGTQYSLKINSLQSEDFGTYYCQHFWGTPYTFGGGTKLEIK | < 1 |
